# Columns and labels:
# [1] = target: C-terminal SNAP-tagged H3.3 G34R (UniProt P84243)
# [2] = target: C-terminal SNAP-tagged H3.3 K27M (UniProt P84243)
substance,measurement,setting,value
Polynucleotide Kinase 3′-Phosphatase (PNKP),NHEJ activity by random plasmid integration assay upon knockdown of PNKP,[1],it does reduce NHEJ in H3.3K27M and G34R cells
same,NHEJ activity by random plasmid integration assay upon knockdown of PNKP,[2],it does reduce NHEJ in H3.3K27M and G34R cells

# From patent US20250257357
